Assay results published in patent US20030073818A1 (MEDICAL COLLEGE OF GEORGIA RESEARCH INSTITUTE, published 2003).

B1: Calcyon:GAL4 AD fusion protein (encoded by pACTCalcyon) (other, not shown: large carriers)
chain: MVKLGCSFSGKPGKDPGDQDGAAMDSVPLISPLDISQLQPPLPDQVVIKTQTEYQLSSPDQQNFPDLEGQRLNCSHPEEGRRLPTARMIAFAMALLGCVLIMYKAIWYDQFTCPDGFLLRHKICTPLTLEMYYTEMDPERHRSILAAIGAYPLSRKHGTETPAAWGDGYRAAKEERKGPTQAGAAAAATEPPGKPSAKAEKEAARKAAGSAAPPPAQ
notes: Library clone from a human brain cDNA:GAL4 AD library; The 936 bp insert holds the whole 217 residue ORF; also called pACTP24; clone K37
B2: D1 receptor:GAL4 binding domain fusion protein pGBTD1421-435 (other, yeast;human, UniProt P04386 1-147, looked up)
chain: MKLLSSIEQACDICRLKKLKCSKEKPKCAKCLKNNWECRYSPKTKRSPLTRAHLTEVESRLERLEQLFLLIFPREDLDMILKMDSLQDIKALLTGLFVQDNVNKDAVTDRLASVETDMPLTLRQHRISATSSSEESSNKGQRQLTVSSVILDYDTDVSLEKI
B3: GAL4 Activation Domain (AD) protein encoded on the vector pGAD424 (other, yeast, UniProt P04386 768-881, looked up)
chain: ANFNQSGNIADSSLSFTFTNSSNGPNLITTQTNSQALSQPIASSNVHDNFMNNEITASKIDDGNNSKPLSPGWTDQTAYNAFGITTGMFNTTTMDDVYNYLFDDEDTPPNPKKE

Columns and labels:
[1] = target: T1, D1/GAL4 BD fusion protein (hD1 receptor residues 365-446 fused to the GAL4 DNA binding domain, pGBTD1) (yeast; human, UniProt P04386 1-147; P21728 365-446); assay: yeast two-hybrid
T1 construct: D1 segment is at the 3' end of the GAL4 BD open reading frame; also called pGBTD1365-446; D1:GAL4 fusion protein

[2] = target: B1; assay: yeast two-hybrid
[3] = target: T1, D1/GAL4 BD fusion protein (hD1 receptor …); assay: yeast two-hybrid, X-Gal colony filter assay

B1: binds [1].

B2: binds [2].

B3: no binding [3].
